Values of other authors, collected in publication PMC5289555.

What was measured:
[1] = target: Hsp90 (Saccharomyces cerevisiae) (UniProt P02829)
[2] = target: Hsp90 zipped construct (Saccharomyces cerevisiae) (UniProt P02829)

Hsp90 (from UniProt P02829)
Kd [1]: 60 nM

Hsp90 zipped construct (from UniProt P02829)
Kd [2]: < 0.001 nM
